Results reported in US20230322927A1 (Regeneron, published 2023).

How the values were obtained:
human EGFR on cells [1] = biological target: T1, human EGFR on cells (human, UniProt P00533 25-1210); assay: cell-based or functional assay
[2] = biological target: T2, hEGFR(ECD).CPGG.MMH6 (REGN355) (human, UniProt P00533 25-647); assay: SPR (Biacore 4000) at 25 C; antibody captured on anti-human Fc, hEGFR.mmH injected
T2 construct: Soluble extracellular domain with a myc-myc-hexahistidine tag; also called hEGFR.mmH; hEGFR.mmh
Protocol: Association was monitored for 5 minutes, and the dissociation of hEGFR.mmH in HBS-EP running buffer was monitored for 10 minutes. All of the binding kinetics experiments were performed at 25° C. Kinetic association (kₐ) and dissociation (kd) rate constants were determined by fitting the real-time sensorgrams to a 1:1 binding model using Scrubber 2.0c curve fitting software.

human EGFR on cells [3] = biological target: T1, human EGFR on cells; assay: flow cytometry titration on CASKI cells
human EGFR on cells [4] = biological target: T1, human EGFR on cells; assay: flow cytometry titration on PEO1 cells
Protocol: (§1) After incubation, the cells were washed twice with cold PBS containing 1% filtered FBS and a Fluorophore-conjugated anti-human secondary antibody was added to the cells and incubated for an additional 30 minutes. Live/dead dye was added to Human and Cynomolgus T cells incubations. Wells containing no antibody or secondary only were used as a control.
(§2) After incubation with EGFR expressing cells, cells were washed, re-suspended in 200 μL cold PBS containing 1% filtered FBS and analyzed by flow cytometry on a BD FACS Canto II.

hCD28.mFc (REGN2012) [5] = biological target: T3, hCD28.mFc (REGN2012) (human, UniProt P10747 19-152, limits assumed); assay: SPR (Biacore T-200) at 25 C; hCD28.mFc captured on anti-mouse Fc, antibody injected
T3 construct: also called Human CD28-mFc; hCD28 with a C-terminal mouse Fc tag; not shown: C-terminal mouse Fc tag

human EGFR on cells [6] = biological target: T1, human EGFR on cells; assay: flow cytometry titration on A375 cells
Protocol: as §1, §2

human CD28 on cells = human CD28 on cells (human, UniProt P10747 19-220); assay: cell-based or functional assay
human EGFR on cells [7] = biological target: T1, human EGFR on cells; assay: flow cytometry titration on 22RV1 cells
Protocol: as §1, §2

[8] = biological target: T2, hEGFR(ECD).CPGG.MMH6 (REGN355); assay: SPR (Biacore) at 25 C; antibody captured on anti-hFc, hEGFR.mmH injected
hCD28.mFc (REGN2012) [9] = biological target: T3, hCD28.mFc (REGN2012); assay: SPR (Biacore) at 25 C; hCD28.mFc captured on anti-mFc, antibody injected
hCD28.mFc (REGN2012) [10] = biological target: T3, hCD28.mFc (REGN2012); assay: SPR (Biacore) at 37 C; hCD28.mFc captured on anti-mFc, antibody injected
Protocol: SPR Kinetics Method: Kinetics binding parameters were determined via surface plasmon resonance (SPR) using a T-200 instrument and CM5 sensors (GE Healthcare). Double-referenced sensorgrams were globally fit to a 1:1 binding model using Scrubber (BioLogics Software). The dissociation rate constant (kd) was determined by fitting the change in the binding response during the dissociation phase, and the association rate constant (ka) was determined by fitting analyte binding at different concentrations. The KD was calculated from the ratio of the kd and ka. The dissociative half-life (t½) was calculated as In2/kd and converted to minutes.
CD28 Capture Method Specifics: An anti-mFc polyclonal Ab (GE) was coupled to a CM5 sensor surface using traditional EDC/NHS coupling chemistry. ˜30RUs of hCD28.mFc were captured on this surface. […] Dissociation was measured for 5 minutes. Surface was regenerated with a 40 second injection of 10 mM glycine, pH 1.5. Sensorgrams were processed and fit as described above.

[11] = biological target: T2, hEGFR(ECD).CPGG.MMH6 (REGN355); assay: SPR (Biacore) at 37 C; antibody captured on anti-hFc, hEGFR.mmH injected
Protocol: SPR Kinetics Method: Kinetics binding parameters were determined via surface plasmon resonance (SPR) using a T-200 instrument and CM5 sensors (GE Healthcare). Double-referenced sensorgrams were globally fit to a 1:1 binding model using Scrubber (BioLogics Software). The dissociation rate constant (kd) was determined by fitting the change in the binding response during the dissociation phase, and the association rate constant (ka) was determined by fitting analyte binding at different concentrations. The KD was calculated from the ratio of the kd and ka.
A six-point, three-fold dilution series of hEGFR.mmH starting at 30 nM was injected over this surface at a flow rate of 50 uL/min for 5 minutes. Surface was regenerated with a 10 second pulse of 20 mM H3PO4. Dissociation was measured for 10 minutes. Sensorgrams were processed and fit as described above.

| Binder | EC50 [M] of increase of BaF3/hEGFR proliferation in presence of 0.5 nM hTGFβ (human EGFR on cells [1]) | IC50 [M] of inhibition of BaF3/hEGFR proliferation in presence of 0.5 nM hEGF (human EGFR on cells [1]) | Inhibition [%] of BaF3/hEGFR proliferation in presence of 0.5 nM hEGF (human EGFR on cells [1]) | Kd [2] | koff [2] | kon [2] | t½ [2] | EC50 (human EGFR on cells [3]) | EC50 (human EGFR on cells [4]) | Kd (hCD28.mFc (REGN2012) [5]) | koff (hCD28.mFc (REGN2012) [5]) | kon (hCD28.mFc (REGN2012) [5]) | t½ (hCD28.mFc (REGN2012) [5]) | EC50 (human EGFR on cells [6]) | IL-2 Release MAX (pg/mL), human CD3+ T cells + NCI-H292 cells, with 20 nM IsoC-1 (human CD28 on cells) | IL-2 Release MAX (pg/mL), human CD3+ T cells + NCI-H292 cells, with 20 nM cemiplimab (human CD28 on cells) | Proliferation MAX (CPM), human CD3+ T cells + NCI-H292 cells, with 20 nM IsoC-1 (human CD28 on cells) | Proliferation MAX (CPM), human CD3+ T cells + NCI-H292 cells, with 20 nM cemiplimab (human CD28 on cells) | Inhibition [%] of BaF3/hEGFR proliferation in presence of 0.5 nM hTGFβ (human EGFR on cells [1]) | IC50 [M] of inhibition of BaF3/hEGFR proliferation in presence of 0.5 nM hTGFβ (human EGFR on cells [1]) | further results |
| --- | --- | --- | --- | --- | --- | --- | --- | --- | --- | --- | --- | --- | --- | --- | --- | --- | --- | --- | --- | --- | --- |
| mAb35193P2 (antibody, V domains shown) VH: EVQLVESGGGLVKPGGSLRLSCTASGFSFRDAWMTWVRQVPGKGLEWVGRIRNKIDGGTTDYNTPVKDRFTISRDDSKNTLYLQMNSLKTEDTAVYYCTTDIWNYVLFYYYGLDVWGQGTTVTVSS VL: not shown | 9.14e-10 M | 2.55e-09 M | 29.6% | – | – | – | – | – | – | – | – | – | – | – | – | – | – | – | – | – | – |
| REGN6322 (bispecific antibody, human IgG4 S228P, kappa, EGFR arm from mAb35193P2, CD28 arm from mAb14226; also called bsAb6322; EGFRxCD28) heavy 1: EVQLVESGGGLVKPGGSLRLSCTASGFSFRDAWMTWVRQVPGKGLEWVGRIRNKIDGGTTDYNTPVKDRFTISRDDSKNTLYLQMNSLKTEDTAVYYCTTDIWNYVLFYYYGLDVWGQGTTVTVSSASTKGPSVFPLAPCSRSTSESTAALGCLVKDYFPEPVTVSWNSGALTSGVHTFPAVLQSSGLYSLSSVVTVPSSSLGTKTYTCNVDHKPSNTKVDKRVESKYGPPCPPCPAPPVAGPSVFLFPPKPKDTLMISRTPEVTCVVVDVSQEDPEVQFNWYVDGVEVHNAKTKPREEQFNSTYRVVSVLTVLHQDWLNGKEYKCKVSNKGLPSSIEKTISKAKGQPREPQVYTLPPSQEEMTKNQVSLTCLVKGFYPSDIAVEWESNGQPENNYKTTPPVLDSDGSFFLYSRLTVDKSRWQEGNVFSCSVMHEALHNHYTQKSLSLSLGK heavy 2: QVQLQESGPGLVKPSETLSLTCTVSGGSISSYYWSWIRQPPGKGLEWIGYIYYSGITHYNPSLKSRVTISVDTSKIQFSLKLSSVTAADTAVYYCARWGVRRDYYYYGMDVWGQGTTVTVSSASTKGPSVFPLAPCSRSTSESTAALGCLVKDYFPEPVTVSWNSGALTSGVHTFPAVLQSSGLYSLSSVVTVPSSSLGTKTYTCNVDHKPSNTKVDKRVESKYGPPCPPCPAPPVAGPSVFLFPPKPKDTLMISRTPEVTCVVVDVSQEDPEVQFNWYVDGVEVHNAKTKPREEQFNSTYRVVSVLTVLHQDWLNGKEYKCKVSNKGLPSSIEKTISKAKGQPREPQVYTLPPSQEEMTKNQVSLTCLVKGFYPSDIAVEWESNGQPENNYKTTPPVLDSDGSFFLYSRLTVDKSRWQEGNVFSCSVMHEALHNRFTQKSLSLSPGK light: not shown | 3.67e-09 M | – | – | 9.38 nM | 0.00146 s⁻¹ | 156000 M⁻¹ s⁻¹ | 7.9 min | 24.4 nM | 5.77 nM | 10.3 nM | 0.00268 s⁻¹ | 261000 M⁻¹ s⁻¹ | 4.3 min | 4.64 nM | 8.02 pg/mL | 21.8 pg/mL | 1860 CPM | 2380 CPM | – | – | EC50 (human EGFR on cells [7]): 9.58 nM |
| REGN6321 (bispecific antibody, human IgG4 S228P, kappa, also called bsAb6321; EGFRxCD28) heavy 1: EVQLVESGGGLVRPGGSLRLSCTASGFTFSTFIMFWVRQAPGKGLEYVSSISSNGGTIYYADSVKGRFTISRDNSKNTLYLQMGSLRAEDMAVYYCTRGGDFWSGYYPFDYWGQGTLVTVSSASTKGPSVFPLAPCSRSTSESTAALGCLVKDYFPEPVTVSWNSGALTSGVHTFPAVLQSSGLYSLSSVVTVPSSSLGTKTYTCNVDHKPSNTKVDKRVESKYGPPCPPCPAPPVAGPSVFLFPPKPKDTLMISRTPEVTCVVVDVSQEDPEVQFNWYVDGVEVHNAKTKPREEQFNSTYRVVSVLTVLHQDWLNGKEYKCKVSNKGLPSSIEKTISKAKGQPREPQVYTLPPSQEEMTKNQVSLTCLVKGFYPSDIAVEWESNGQPENNYKTTPPVLDSDGSFFLYSRLTVDKSRWQEGNVFSCSVMHEALHNHYTQKSLSLSLGK heavy 2: QVQLQESGPGLVKPSETLSLTCTVSGGSISSYYWSWIRQPPGKGLEWIGYIYYSGITHYNPSLKSRVTISVDTSKIQFSLKLSSVTAADTAVYYCARWGVRRDYYYYGMDVWGQGTTVTVSSASTKGPSVFPLAPCSRSTSESTAALGCLVKDYFPEPVTVSWNSGALTSGVHTFPAVLQSSGLYSLSSVVTVPSSSLGTKTYTCNVDHKPSNTKVDKRVESKYGPPCPPCPAPPVAGPSVFLFPPKPKDTLMISRTPEVTCVVVDVSQEDPEVQFNWYVDGVEVHNAKTKPREEQFNSTYRVVSVLTVLHQDWLNGKEYKCKVSNKGLPSSIEKTISKAKGQPREPQVYTLPPSQEEMTKNQVSLTCLVKGFYPSDIAVEWESNGQPENNYKTTPPVLDSDGSFFLYSRLTVDKSRWQEGNVFSCSVMHEALHNRFTQKSLSLSPGK light: not shown | – | – | – | 0.634 nM | 4.63e-05 s⁻¹ | 73000 M⁻¹ s⁻¹ | 249 min | 16.9 nM | – | 10.8 nM | 0.00281 s⁻¹ | 259000 M⁻¹ s⁻¹ | 4.1 min | 5.42 nM | – | – | – | – | – | – | – |
| REGN7075 (bispecific antibody, human IgG4 S228P, kappa, EGFR arm from mAb12999P2, CD28 arm from mAb14226; also called bsAb7075; H4sH24623D) heavy 1: QVQLQESGPGLVKPSETLSLTCTVSGDSIITFYWSWIRQPPGRGLEWIGYIYYSGITNYNPSLKSRVTISVDTSKNQVSLKLSSVTAADTAVYYCARVSEDSYFHYGMDVWGQGTTVTVSSASTKGPSVFPLAPCSRSTSESTAALGCLVKDYFPEPVTVSWNSGALTSGVHTFPAVLQSSGLYSLSSVVTVPSSSLGTKTYTCNVDHKPSNTKVDKRVESKYGPPCPPCPAPPVAGPSVFLFPPKPKDTLMISRTPEVTCVVVDVSQEDPEVQFNWYVDGVEVHNAKTKPREEQFNSTYRVVSVLTVLHQDWLNGKEYKCKVSNKGLPSSIEKTISKAKGQPREPQVYTLPPSQEEMTKNQVSLTCLVKGFYPSDIAVEWESNGQPENNYKTTPPVLDSDGSFFLYSRLTVDKSRWQEGNVFSCSVMHEALHNHYTQKSLSLSLGK heavy 2: QVQLQESGPGLVKPSETLSLTCTVSGGSISSYYWSWIRQPPGKGLEWIGYIYYSGITHYNPSLKSRVTISVDTSKIQFSLKLSSVTAADTAVYYCARWGVRRDYYYYGMDVWGQGTTVTVSSASTKGPSVFPLAPCSRSTSESTAALGCLVKDYFPEPVTVSWNSGALTSGVHTFPAVLQSSGLYSLSSVVTVPSSSLGTKTYTCNVDHKPSNTKVDKRVESKYGPPCPPCPAPPVAGPSVFLFPPKPKDTLMISRTPEVTCVVVDVSQEDPEVQFNWYVDGVEVHNAKTKPREEQFNSTYRVVSVLTVLHQDWLNGKEYKCKVSNKGLPSSIEKTISKAKGQPREPQVYTLPPSQEEMTKNQVSLTCLVKGFYPSDIAVEWESNGQPENNYKTTPPVLDSDGSFFLYSRLTVDKSRWQEGNVFSCSVMHEALHNRFTQKSLSLSPGK light: not shown | – | – | -6.8% | – | – | – | – | 2.05 nM | 1.22 nM | – | – | – | – | – | 12.7 pg/mL | 27.2 pg/mL | 1880 CPM | 3250 CPM | 11.2% | – | Kd [8]: 2.8 nM; koff [8]: 0.000433 s⁻¹; kon [8]: 154000 M⁻¹ s⁻¹; t½ [8]: 26.7 min; Kd (hCD28.mFc (REGN2012) [9]): 10.7 nM; koff (hCD28.mFc (REGN2012) [9]): 0.00314 s⁻¹; kon (hCD28.mFc (REGN2012) [9]): 294000 M⁻¹ s⁻¹; t½ (hCD28.mFc (REGN2012) [9]): 3.7 min; Kd (hCD28.mFc (REGN2012) [10]): 51.7 nM; koff (hCD28.mFc (REGN2012) [10]): 0.0131 s⁻¹; kon (hCD28.mFc (REGN2012) [10]): 254000 M⁻¹ s⁻¹; t½ (hCD28.mFc (REGN2012) [10]): 0.9 min; Proliferation EC50 [M], human CD3+ T cells + NCI-H292 cells, with 20 nM IsoC-1 (human CD28 on cells): 3.92e-11 M; Proliferation EC50 [M], human CD3+ T cells + NCI-H292 cells, with 20 nM cemiplimab (human CD28 on cells): 2.16e-11 M; Kd [11]: 0.933 nM; koff [11]: 0.000412 s⁻¹; kon [11]: 441000 M⁻¹ s⁻¹ |
| mAb13006P2 (antibody, V domains shown) VH: QVQLQESGPGLVKPSETLSLTCTVSDDSIISYYWSWIRQPPGKGLEWIGYIYYSGRTNYNPSLKSRVTISVDTSKNQVSLKLNSVIAADTAVYYCARVSEDSYYHYGMDVWGQGTTVTVSS VL: not shown | – | – | 93.2% | – | – | – | – | – | – | – | – | – | – | – | – | – | – | – | 97.2% | 6.55e-09 M | – |
| mAb12999P2 (antibody, V domains shown) VH: QVQLQESGPGLVKPSETLSLTCTVSGDSIITFYWSWIRQPPGRGLEWIGYIYYSGITNYNPSLKSRVTISVDTSKNQVSLKLSSVTAADTAVYYCARVSEDSYFHYGMDVWGQGTTVTVSS VL: not shown | – | 1.98e-08 M | 91.8% | – | – | – | – | – | – | – | – | – | – | – | – | – | – | – | 95.9% | 7.79e-09 M | – |
